Laboratory results as given in patent US20110250130A1 (AbbVie / Abbott, published 2011).

Key:
[1] = biological target: T1, Recombinant Human TNF-α/TNFSF1A (human, UniProt P01375 77-233); test: cell-based or functional assay
[2] = biological target: T1, Recombinant Human TNF-α/TNFSF1A; test: SPR (Biacore), antibody captured, TNF-α in solution
Procedure: The BIACORE assay (Biacore, Inc. Piscataway, N.J.) determines the affinity of antibodies with kinetic measurements of on-rate and off-rate constants. Binding of antibodies to a target antigen (for example, a purified recombinant target antigen) is determined by surface plasmon resonance-based measurements with a Biacore® 1000 or 3000 instrument (Biacore® AB, Uppsala, Sweden) using running HBS-EP (10 mM HEPES [pH 7.4], 150 mM NaCl, 3 mM EDTA, and 0.005% surfactant P20) at 25° C. All chemicals are obtained from Biacore® AB (Uppsala, Sweden) or otherwise from a different source as described in the text. For example, approximately 5000 RU of goat anti-mouse IgG, (Fcγ), fragment specific polyclonal antibody (Pierce Biotechnology Inc, Rockford, Ill., US) diluted in 10 mM sodium acetate (pH 4.5) is directly immobilized across a CM5 research grade biosensor chip using a standard amine coupling kit according to manufacturer's instructions and procedures at 25 μg/ml. Unreacted moieties on the biosensor surface are blocked with ethanolamine. Modified carboxymethyl dextran surface in flowcell 2 and 4 is used as a reaction surface. Unmodified carboxymethyl dextran without goat anti-mouse IgG in flow cell 1 and 3 is used as the reference surface. For kinetic analysis, rate equations derived from the 1:1 Langmuir binding model are fitted simultaneously to association and dissociation phases of all eight injections (using global fit analysis) with the use of Biaevaluation 4.0.1 software. Purified antibodies are diluted in HEPES-buffered saline for capture across goat anti-mouse IgG specific reaction surfaces. Antibodies to be captured as a ligand (25 μg/ml) are injected over reaction matrices at a flow rate of 5 μl/minute. The association and dissociation rate constants, kₒₙ (M⁻¹s⁻¹) and koff (s⁻¹), are determined under a continuous flow rate of 25 μl/minute. Rate constants are derived by making kinetic binding measurements at different antigen concentrations ranging from 10-200 nM. The equilibrium dissociation constant (M) of the reaction between antibodies and the target antigen is then calculated from the kinetic rate constants by the following formula: KD=koff/kₒₙ. Binding is recorded as a function of time and kinetic rate constants are calculated. In this assay, on-rates as fast as 10⁶ M⁻¹s⁻¹ and off-rates as slow as 10⁻⁶ s⁻¹ can be measured.

T1 sequence (P01375 77-233 limits assumed): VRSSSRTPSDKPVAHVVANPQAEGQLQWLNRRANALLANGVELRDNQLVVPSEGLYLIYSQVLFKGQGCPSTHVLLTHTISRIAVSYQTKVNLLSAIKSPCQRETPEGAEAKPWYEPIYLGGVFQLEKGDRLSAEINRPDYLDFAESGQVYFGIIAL

B1: AB256 (antibody, V domains shown)
VH: EVQLVESGGGLVQPGGSLRLSCAVSGFTLSDYGVNWVRQAPGKGLEWLGMIWGDGSTDYDSTLKSRLTISKDNSKSTIYLQMNSLRAEDTAVYYCAREWHHGPVAYWGQGTLVTVSS
VL: DIQMTQSPSSLSASVGDRVTITCKASQAVSSAVAWYQQKPGKAPKLLIYWASTRHTGVPSRFSGSGSGTDFTLTISSLQPEDFATYYCQQHYSTPFTFGQGTKLEIK
notes: also called hMAK195VH.2a / hMAK195VL.1
Which “TNF-α neutralization assay IC50 (nM), L929 cells” value (from here on “TNF-α neutralization assay IC50”) [1] does the source give for B1 here?
Its value is 0.058 nM.

And the Kd [2]?
Its Kd is 50.5 pM.

What about the koff [2] of the same binder?
The koff was 0.000177 s⁻¹.

And the kon [2]?
Its kon is 3.54e+06 M⁻¹ s⁻¹.

B2: AB262 (antibody, V domains shown)
VH: EVQLVESGGGLVQPGGSLRLSCAASGFTLSDYGVNWVRQAPGKGLEWVSMIWGDGSTDYDSTLKSRFTISKDNSKNTLYLQMNSLRAEDTAVYYCAREWHHGPVAYWGQGTLVTVSS
VL: EIVMTQSPATLSLSPGERATLSCKASQAVSSAVAWYQQKPGQAPRLLIYWASTRHTGIPARFSGSGSGTDFTLTISSLQPEDFAVYYCQQHYSTPFTFGQGTKLEIK
notes: also called hMAK195VH.2b / hMAK195VL.2
Which “TNF-α neutralization assay IC50” value [1] does the source give for B2 here?
The value was 0.218 nM.

And the Kd [2]?
The Kd was 136 pM.

What about the koff [2] of the same binder?
The koff was 0.00029 s⁻¹.

What about the kon [2] of the same binder?
Its kon is 2.14e+06 M⁻¹ s⁻¹.

B3: AB263 (antibody, V domains shown)
VH: EVQLVESGGGLVQPGGSLRLSCAASGFTLSDYGVNWVRQAPGKGLEWVSMIWGDGSTDYDSTLKSRFTISKDNSKNTLYLQMNSLRAEDTAVYYCAREWHHGPVAYWGQGTLVTVSS
VL: EIVMTQSPATLSLSPGERATLSCKASQAVSSAVAWYQQKPGQSPRLLIYWASTRHTGVPARFSGSGSGTDFTLTISSLQPEDFAVYYCQQHYSTPFTFGQGTKLEIK
notes: also called hMAK195VH.2b / hMAK195VL.2a
For B3, which “TNF-α neutralization assay IC50” value [1] is on record?
Its value is 0.193 nM.

And the Kd [2]?
The Kd was 169 pM.

And the koff [2]?
Its koff is 0.000273 s⁻¹.

And the kon [2]?
The kon was 1.61e+06 M⁻¹ s⁻¹.

B4: AB254 (antibody, V domains shown)
VH: EVQLVESGGGLVQPGGSLRLSCAASGFTFSDYGVNWVRQAPGKGLEWVSMIWGDGSTDYDSTLKSRFTISRDNSKNTLYLQMNSLRAEDTAVYYCAREWHHGPVAYWGQGTLVTVSS
VL: EIVMTQSPATLSLSPGERATLSCKASQAVSSAVAWYQQKPGQAPRLLIYWASTRHTGIPARFSGSGSGTDFTLTISSLQPEDFAVYYCQQHYSTPFTFGQGTKLEIK
notes: also called hMAK195VH.2 / hMAK195VL.2
How did the “TNF-α neutralization assay IC50” value [1] turn out when B4 was run?
Its value is 0.799 nM.

And the Kd [2]?
The Kd was 120 pM.

And the koff [2]?
Its koff is 0.000287 s⁻¹.

What about the kon [2] of the same binder?
Its kon is 2.4e+06 M⁻¹ s⁻¹.

B5: AB255 (antibody, V domains shown)
VH: EVQLVESGGGLVQPGGSLRLSCAASGFTFSDYGVNWVRQAPGKGLEWVSMIWGDGSTDYDSTLKSRFTISRDNSKNTLYLQMNSLRAEDTAVYYCAREWHHGPVAYWGQGTLVTVSS
VL: EIVMTQSPATLSLSPGERATLSCKASQAVSSAVAWYQQKPGQSPRLLIYWASTRHTGVPARFSGSGSGTDFTLTISSLQPEDFAVYYCQQHYSTPFTFGQGTKLEIK
notes: also called hMAK195VH.2 / hMAK195VL.2a
What does the source list for B5?
TNF-α neutralization assay IC50 (nM), L929 cells [1]: 0.477 nM; Kd [2]: 148 pM; koff [2]: 0.000384 s⁻¹; kon [2]: 2.62e+06 M⁻¹ s⁻¹

B6: AB258 (antibody, V domains shown)
VH: EVQLVESGGGLVQPGGSLRLSCAVSGFTLSDYGVNWVRQAPGKGLEWLGMIWGDGSTDYDSTLKSRLTISKDNSKSTIYLQMNSLRAEDTAVYYCAREWHHGPVAYWGQGTLVTVSS
VL: EIVMTQSPATLSLSPGERATLSCKASQAVSSAVAWYQQKPGQAPRLLIYWASTRHTGIPARFSGSGSGTDFTLTISSLQPEDFAVYYCQQHYSTPFTFGQGTKLEIK
notes: also called hMAK195VH.2a / hMAK195VL.2
With B6 as the binder, how does the “TNF-α neutralization assay IC50” value [1] read?
The value was 0.078 nM.

And the Kd [2]?
Its Kd is 81.6 pM.

What about the koff [2] of the same binder?
Its koff is 0.000244 s⁻¹.

And the kon [2]?
Its kon is 3.04e+06 M⁻¹ s⁻¹.

B7: AB257 (antibody, V domains shown)
VH: EVQLVESGGGLVQPGGSLRLSCAVSGFTLSDYGVNWVRQAPGKGLEWLGMIWGDGSTDYDSTLKSRLTISKDNSKSTIYLQMNSLRAEDTAVYYCAREWHHGPVAYWGQGTLVTVSS
VL: DIQMTQSPSSLSASVGDRVTITCKASQAVSSAVAWYQQKPGKSPKLLIYWASTRHTGVPSRFSGSGSGTDFTLTISSLQPEDFATYYCQQHYSTPFTFGQGTKLEIK
notes: also called hMAK195VH.2a / hMAK195VL.1a
B7 was tested. Which “TNF-α neutralization assay IC50” value [1] did it give?
The value was 0.077 nM.

What about the Kd [2] of the same binder?
Its Kd is 62 pM.

And the koff [2]?
The koff was 0.000217 s⁻¹.

What about the kon [2] of the same binder?
Its kon is 3.56e+06 M⁻¹ s⁻¹.

B8: AB259 (antibody, V domains shown)
VH: EVQLVESGGGLVQPGGSLRLSCAVSGFTLSDYGVNWVRQAPGKGLEWLGMIWGDGSTDYDSTLKSRLTISKDNSKSTIYLQMNSLRAEDTAVYYCAREWHHGPVAYWGQGTLVTVSS
VL: EIVMTQSPATLSLSPGERATLSCKASQAVSSAVAWYQQKPGQSPRLLIYWASTRHTGVPARFSGSGSGTDFTLTISSLQPEDFAVYYCQQHYSTPFTFGQGTKLEIK
notes: also called hMAK195VH.2a / hMAK195VL.2a
B8 was tested. Which “TNF-α neutralization assay IC50” value [1] did it give?
Its value is 0.071 nM.

What about the Kd [2] of the same binder?
The Kd was 67.7 pM.

And the koff [2]?
Its koff is 0.000203 s⁻¹.

And the kon [2]?
The kon was 3e+06 M⁻¹ s⁻¹.

B9: AB261 (antibody, V domains shown)
VH: EVQLVESGGGLVQPGGSLRLSCAASGFTLSDYGVNWVRQAPGKGLEWVSMIWGDGSTDYDSTLKSRFTISKDNSKNTLYLQMNSLRAEDTAVYYCAREWHHGPVAYWGQGTLVTVSS
VL: DIQMTQSPSSLSASVGDRVTITCKASQAVSSAVAWYQQKPGKSPKLLIYWASTRHTGVPSRFSGSGSGTDFTLTISSLQPEDFATYYCQQHYSTPFTFGQGTKLEIK
notes: also called hMAK195VH.2b / hMAK195VL.1a
What does the source list for B9?
TNF-α neutralization assay IC50 (nM), L929 cells [1]: 0.187 nM; Kd [2]: 122 pM; koff [2]: 0.000285 s⁻¹; kon [2]: 2.36e+06 M⁻¹ s⁻¹
